Key:
[1] = target: T1, Mena1-112 EVH1 domain (UniProt Q03173 1-112); assay: tryptophan fluorescence perturbation
T1 construct: range 1-112

[2] = target: KIX domain of CBP (Homo sapiens (Human), UniProt Q92793 587-666); assay: method not stated (supplemental information)
[3] = target: T1, Mena1-112 EVH1 domain; assay: fluorescence polarization competition against pGolemi^Flu

T1 sequence (Q03173 1-112 limits assumed): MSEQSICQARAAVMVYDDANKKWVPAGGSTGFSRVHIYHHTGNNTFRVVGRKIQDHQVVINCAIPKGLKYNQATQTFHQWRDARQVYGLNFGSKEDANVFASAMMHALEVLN
Sequence of KIX domain of CBP (Q92793 587-666 limits assumed, form in doubt): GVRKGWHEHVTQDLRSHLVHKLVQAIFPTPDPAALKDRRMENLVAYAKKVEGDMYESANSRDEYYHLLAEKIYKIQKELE

PFPPTPP [PPII7]
Kd [1]: 480 µM

PFPPTPPGEEAPVEDLIRFYNDLQQYLNVV (designed binder) [pGolemi]
Kd [2]: 15 µM

B1: ActA11 (peptide)
peptide: FEFPPPPTDEE
notes: domain: PPII repeat 2; also called 11 residue peptide comprising PPII repeat 2 of L. monocytogenes ActA
IC50 [3]: 4 µM

Reference: patent US20050287643A1 (YALE UNIVERSITY, published 2005)
